Experimental findings from patent US20240270821A1, “GIP/GLP1/GCG TRI-RECEPTOR AGONISTS AND USES THEREOF” (priority 2023, published 2024) are described below.

What all share (test): cell-based or functional assay
One test addresses hGLP-1R (Homo sapiens, UniProt P43220).
The target in test [1] is T1, human GIP receptor (human) (UniProt P48546).
T1 sequence (looked up): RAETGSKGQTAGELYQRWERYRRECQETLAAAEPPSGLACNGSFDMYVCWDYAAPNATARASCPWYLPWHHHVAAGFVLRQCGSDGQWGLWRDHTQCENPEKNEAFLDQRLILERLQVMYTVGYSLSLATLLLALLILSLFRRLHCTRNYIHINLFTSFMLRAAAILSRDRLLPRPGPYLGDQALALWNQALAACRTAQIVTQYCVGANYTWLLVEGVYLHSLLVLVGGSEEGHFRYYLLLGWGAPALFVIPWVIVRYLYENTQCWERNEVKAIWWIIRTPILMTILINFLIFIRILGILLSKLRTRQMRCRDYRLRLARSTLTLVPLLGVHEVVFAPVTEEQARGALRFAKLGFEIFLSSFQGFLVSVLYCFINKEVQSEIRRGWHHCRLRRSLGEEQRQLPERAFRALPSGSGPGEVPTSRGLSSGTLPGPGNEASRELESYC

In test [2] the target is human glucagon receptor (human) (UniProt P47871).

Positions count from the first letter of the chain named.

Sequence of hGLP-1R (P43220 24-463): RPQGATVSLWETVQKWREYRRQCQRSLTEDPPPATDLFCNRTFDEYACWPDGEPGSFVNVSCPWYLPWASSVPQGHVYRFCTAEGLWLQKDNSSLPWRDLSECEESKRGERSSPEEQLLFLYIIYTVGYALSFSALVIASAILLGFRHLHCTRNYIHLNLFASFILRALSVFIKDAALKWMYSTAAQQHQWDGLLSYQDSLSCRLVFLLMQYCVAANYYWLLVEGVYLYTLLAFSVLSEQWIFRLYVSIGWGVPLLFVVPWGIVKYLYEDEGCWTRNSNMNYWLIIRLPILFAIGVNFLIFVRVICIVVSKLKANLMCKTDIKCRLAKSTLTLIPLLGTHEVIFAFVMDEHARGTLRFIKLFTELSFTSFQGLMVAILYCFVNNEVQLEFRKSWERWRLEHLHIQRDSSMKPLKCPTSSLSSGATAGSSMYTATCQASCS
Sequence of human glucagon receptor (human) (P47871 26-477): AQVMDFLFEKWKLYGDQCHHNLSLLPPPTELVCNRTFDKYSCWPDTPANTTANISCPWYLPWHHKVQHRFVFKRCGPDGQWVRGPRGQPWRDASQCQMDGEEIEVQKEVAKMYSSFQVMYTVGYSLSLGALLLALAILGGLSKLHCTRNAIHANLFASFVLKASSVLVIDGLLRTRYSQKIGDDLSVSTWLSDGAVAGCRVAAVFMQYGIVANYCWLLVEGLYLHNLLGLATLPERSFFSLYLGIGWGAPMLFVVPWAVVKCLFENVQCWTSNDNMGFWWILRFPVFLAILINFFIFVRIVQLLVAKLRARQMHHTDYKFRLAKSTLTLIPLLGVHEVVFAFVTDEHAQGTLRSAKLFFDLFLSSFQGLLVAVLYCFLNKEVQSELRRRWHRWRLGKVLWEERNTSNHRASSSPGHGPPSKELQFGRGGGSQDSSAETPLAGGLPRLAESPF

B1: Example 529 (peptide)
chain: YXQGTXTSDXXIXLDXKAQXQFIEXLQEGGPSSGEPPPEGTGE
modifications: synthetic construct; SITE 2: note = 2-Aminoisobutyric Acid; SITE 6: note = alpha-methyl-2-fluoro-L-phenylalanine; SITE 10: note = 3-(4-Pyridyl)-L-alanine; SITE 11: note = alpha-methyl-L-serine; SITE 13: note = alpha-methyl-leucine; SITE 16: note = L-ornithine; SITE 17: note = Lysine is chemically mo
Turning to B1, the Relative cAMP EC50 with hGLP-1R was determined as 0.467 nM; in test [1] it was 0.0273 nM; in test [2] it was 6.59 nM. Moreover, the cAMP Rel EC50 (1% HSA) amounted to 24.5 nM with hGLP-1R, 1.39 nM in test [1] and 398 nM in test [2].

B2: Example 527 (peptide)
chain: B1 chain with Q21N
modifications: synthetic construct; SITE 2: note = 2-Aminoisobutyric Acid; SITE 6: note = alpha-methyl-2-fluoro-L-phenylalanine; SITE 10: note = 3-(4-Pyridyl)-L-alanine; SITE 11: note = alpha-methyl-L-serine; SITE 13: note = alpha-methyl-leucine; SITE 16: note = L-ornithine; SITE 17: note = Lysine is chemically mo
With B2, the Relative cAMP EC50 came to 0.446 nM in the test with hGLP-1R, 0.0386 nM in test [1] and 6.99 nM in test [2]. Also, the values for the cAMP Rel EC50 (1% HSA) (with hGLP-1R; in test [1]; in test [2]) were 26.8 nM, 2.6 nM and 580 nM, respectively.

B3: Example 524 (peptide)
chain: B1 chain with Q21X, X25Y, Q27I, E39S
modifications: not fully specified; C-terminal amide; synthetic construct; SITE 2: note = 2-Aminoisobutyric Acid; SITE 6: note = alpha-methyl-2-fluoro-L-phenylalanine; SITE 10: note = 3-(4-Pyridyl)-L-alanine; SITE 11: note = alpha-methyl-L-serine; SITE 13: note = alpha-methyl-leucine; SITE 16: note = L-ornithine; SITE 17: note = Lysine is chemically mo
With B3, the figures for the Relative cAMP EC50 (with hGLP-1R; in test [1]; in test [2]) were 0.487 nM, 0.0266 nM and 5.11 nM, respectively. Further, the cAMP Rel EC50 (1% HSA) worked out at 32.7 nM with hGLP-1R, 1.46 nM in test [1] and 464 nM in test [2].

B4: Example 482 (peptide)
chain: YXQGTXTSDXXIXLDXKAQXNFIEYLIEGGPSSGEPPPEEG
modifications: synthetic construct; SITE 2: note = 2-Aminoisobutyric Acid; SITE 6: note = alpha-methyl-2-fluoro-L-phenylalanine; SITE 10: note = 3-(4-Pyridyl)-L-alanine; SITE 11: note = alpha-methyl-L-serine; SITE 13: note = alpha-methyl-leucine; SITE 16: note = L-ornithine; SITE 17: note = Lysine is chemically mo
On to B4, for which the Relative cAMP EC50, nM (0.1% casein) came out at 0.177 nM in the test with hGLP-1R, 0.0139 nM in test [1] and 1.41 nM in test [2]. The results for the cAMP Rel EC50 (receptor-expressing HEK-293 cells, 1% HSA) (in the test with hGLP-1R; in test [1]; in test [2]) were 14.9 nM, 1.58 nM and 325 nM, respectively.

B5: Example 525 (peptide)
chain: B4 chain with Y25X, I27Q, E40G, G41T
modifications: synthetic construct; SITE 2: note = 2-Aminoisobutyric Acid; SITE 6: note = alpha-methyl-2-fluoro-L-phenylalanine; SITE 10: note = 3-(4-Pyridyl)-L-alanine; SITE 11: note = alpha-methyl-L-serine; SITE 13: note = alpha-methyl-leucine; SITE 16: note = L-ornithine; SITE 17: note = Lysine is chemically mo
Consider B5, for which the Relative cAMP EC50 with hGLP-1R came out at 0.426 nM; in test [1], 0.0351 nM; in test [2], 10 nM. The cAMP Rel EC50 (1% HSA) with hGLP-1R is 20.2 nM; in test [1], 2.07 nM; in test [2], 460 nM.

B6: Example 494 (peptide)
chain: B4 chain with X11S, N21X, I27L
modifications: synthetic construct; SITE 2: note = 2-Aminoisobutyric Acid; SITE 6: note = alpha-methyl-2-fluoro-L-phenylalanine; SITE 10: note = 3-(4-Pyridyl)-L-alanine; SITE 13: note = alpha-methyl-leucine; SITE 16: note = L-ornithine; SITE 17: note = Lysine is chemically modified through conjugation of the epsil
As to B6, the Relative cAMP EC50, nM (0.1% casein) came to 0.211 nM in the test with hGLP-1R, 0.014 nM in test [1] and 1.26 nM in test [2]. The cAMP Rel EC50 (receptor-expressing HEK-293 cells, 1% HSA) worked out at 19.9 nM in the test with hGLP-1R, 1.08 nM in test [1] and 333 nM in test [2].

B7: Example 492 (peptide)
chain: B4 chain with N21X, E35A, P37E, E39S
modifications: synthetic construct; SITE 2: note = 2-Aminoisobutyric Acid; SITE 6: note = alpha-methyl-2-fluoro-L-phenylalanine; SITE 10: note = 3-(4-Pyridyl)-L-alanine; SITE 11: note = alpha-methyl-L-serine; SITE 13: note = alpha-methyl-leucine; SITE 16: note = L-ornithine; SITE 17: note = Lysine is chemically mo
Regarding B7, the Relative cAMP EC50, nM (0.1% casein) in the test with hGLP-1R worked out at 0.146 nM; in test [1], 0.0119 nM; in test [2], 1.35 nM. Moreover, the results for the cAMP Rel EC50 (receptor-expressing HEK-293 cells, 1% HSA) (with hGLP-1R; in test [1]; in test [2]) were 9.85 nM, 0.84 nM and 128 nM, respectively.

B8: Example 502 (peptide)
chain: B4 chain with N21X, E39S, E40G, G41T
modifications: synthetic construct; SITE 2: note = 2-Aminoisobutyric Acid; SITE 6: note = alpha-methyl-2-fluoro-L-phenylalanine; SITE 10: note = 3-(4-Pyridyl)-L-alanine; SITE 11: note = alpha-methyl-L-serine; SITE 13: note = alpha-methyl-leucine; SITE 16: note = L-ornithine; SITE 17: note = Lysine is chemically mo
Regarding B8, the figures for the Relative cAMP EC50 (with hGLP-1R; in test [1]; in test [2]) were 0.326 nM, 0.0337 nM and 3.8 nM, respectively. The cAMP Rel EC50 (1% HSA) in the test with hGLP-1R was determined as 30.6 nM; in test [1], 2.42 nM; in test [2], 395 nM.

B9: Example 505 (peptide)
chain: B4 chain with X11S, N21X, Y25X, E40G, G41T
modifications: synthetic construct; SITE 2: note = 2-Aminoisobutyric Acid; SITE 6: note = alpha-methyl-2-fluoro-L-phenylalanine; SITE 10: note = 3-(4-Pyridyl)-L-alanine; SITE 13: note = alpha-methyl-leucine; SITE 16: note = L-ornithine; SITE 17: note = Lysine is chemically modified through conjugation of the epsil
B9: the Relative cAMP EC50 turned out to be 0.205 nM with hGLP-1R, 0.00707 nM in test [1] and 0.445 nM in test [2]. Besides, the cAMP Rel EC50 (1% HSA) was 39 nM in the test with hGLP-1R, 2.1 nM in test [1] and 92 nM in test [2].

B10: Example 483 (peptide)
chain: B4 chain with E40G, G41E
modifications: synthetic construct; SITE 2: note = 2-Aminoisobutyric Acid; SITE 6: note = alpha-methyl-2-fluoro-L-phenylalanine; SITE 10: note = 3-(4-Pyridyl)-L-alanine; SITE 11: note = alpha-methyl-L-serine; SITE 13: note = alpha-methyl-leucine; SITE 16: note = L-ornithine; SITE 17: note = Lysine is chemically mo
As to B10, the results for the Relative cAMP EC50, nM (0.1% casein) (in the test with hGLP-1R; in test [1]; in test [2]) were 0.188 nM, 0.0133 nM and 1.77 nM, respectively. Besides, the cAMP Rel EC50 (receptor-expressing HEK-293 cells, 1% HSA) came out at 18.2 nM with hGLP-1R, 1.17 nM in test [1] and 231 nM in test [2].

B11: Example 489 (peptide)
chain: B4 chain with X11S, N21X, E39S
modifications: synthetic construct; SITE 2: note = 2-Aminoisobutyric Acid; SITE 6: note = alpha-methyl-2-fluoro-L-phenylalanine; SITE 10: note = 3-(4-Pyridyl)-L-alanine; SITE 13: note = alpha-methyl-leucine; SITE 16: note = L-ornithine; SITE 17: note = Lysine is chemically modified through conjugation of the epsil
For the molecule B11, the figures for the Relative cAMP EC50, nM (0.1% casein) (in the test with hGLP-1R; in test [1]; in test [2]) were 0.172 nM, 0.0121 nM and 2.31 nM, respectively. Further, the cAMP Rel EC50 (receptor-expressing HEK-293 cells, 1% HSA) with hGLP-1R came out at 11.8 nM; in test [1], 1.25 nM; in test [2] it was 523 nM.
